Assay results from patent publication US20180155430A1.

How the values were obtained:
[1] = biological target: human PD-1 (Programmed Death-1) (human) (UniProt Q15116); experiment: cell-based or functional assay
[2] = biological target: human PD-L1 (PD-ligand 1) (human) (UniProt Q9NZQ7); experiment: cell-based or functional assay
UniProt Q9NZQ7, sequence (Q9NZQ7 19-290 limits assumed): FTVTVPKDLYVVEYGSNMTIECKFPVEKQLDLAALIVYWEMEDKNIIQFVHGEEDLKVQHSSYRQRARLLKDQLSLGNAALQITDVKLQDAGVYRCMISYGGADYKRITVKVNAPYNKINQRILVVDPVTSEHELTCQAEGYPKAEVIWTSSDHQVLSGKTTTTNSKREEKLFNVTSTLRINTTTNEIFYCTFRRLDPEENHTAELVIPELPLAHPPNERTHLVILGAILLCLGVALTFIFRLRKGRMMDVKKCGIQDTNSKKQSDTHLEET

UniProt Q15116, sequence (Q15116 other isoform, or with tags, fused parts or gaps limits assumed): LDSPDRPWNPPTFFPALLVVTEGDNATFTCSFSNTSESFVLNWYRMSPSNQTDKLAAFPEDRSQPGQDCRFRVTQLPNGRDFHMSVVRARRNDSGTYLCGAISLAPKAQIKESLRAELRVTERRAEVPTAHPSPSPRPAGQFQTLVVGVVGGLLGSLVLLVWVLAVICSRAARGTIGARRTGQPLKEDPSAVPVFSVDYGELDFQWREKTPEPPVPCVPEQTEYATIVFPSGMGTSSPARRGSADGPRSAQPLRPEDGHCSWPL

Molecule	expansion of HCV-specific CFSE-low tetramer+ CD8+ T cells, 6 days with cognate peptide and IL-2 [1]	expansion of HCV-specific CFSE-low tetramer+ CD8+ T cells, 6 days with cognate peptide and IL-2 [2]	fold increase in B*4201 TL9 tetramer+ CD8+ T cells, 6-day CFSE proliferation assay of human PBMC with TL9 peptide plus antibody (peptide alone: 4.8-fold) [2]	fold increase in frequency of EBV or CMV-specific CD8 T cells, 6-day CFSE assay, peptide plus antibody against peptide alone [2]	percentage of B*4201 TL9-specific CD8+ T cells after 6-day stimulation with peptide [2]
anti-human PD-1 monoclonal antibody EH12	4 fold	–	–	–	–
anti-human PD-L1 monoclonal antibody 29E.2A3 (antibody, from another filing, mouse IgG2b, V domains shown) VH: EVQLQQSGPELVKPGASVKMSCKASGYTFTSYVMHWVKQKPGQGLEWIGYVNPFNDGTKYNEMFKGKATLTSDKSSSTAYMELSSLTSEDSAVYYCARQAWGYPWGQGTLVTVSA VL: DIVLTQSPASLAVSLGQRATISCRATESVEYYGTSLVQWYQQKPGQPPKLLIYAASSVDSGVPARFSGSGSGTDFSLTIHPVEEDDIAMYFCQQSRRVPYTFGGGTKLEIK	–	4 fold	10.3 fold	< 3.5 fold	12.4%
